Measured values published in US20200157248A1.

Experiments:
Assay in all cases: ELISA, VHH on coated antibody
[1] = target: Fwt
[2] = target: mutC4/Cmut4
[3] = target: mutF4/Fmut4

| ELISA OD [1] [OD] | ELISA OD [2] [OD] | ELISA OD [3] [OD] | Binder |
| --- | --- | --- | --- |
| 0.063 | 0.2 | 0.159 | VHH clone 8G12 (VHH) VHH: EVQLVESGGGLVRAGGSLRLSCAASGSIFGTTNMGWYRQAPGTQRDLVATINNGGITNYADSVKGRFTISTDYTKNTVYLQMDRLKPEDTAVYYCNAEYHFRPPSWGQGTQVTVSS |
| 0.114 | 0.068 | 0.153 | VHH clone 8GO9 (VHH) VHH: QVQLVESGGGLVQAGGSLRLSCAASGRTFSRYGMSWFRQAPGKEREFVATISRGGSSTNYADSTKGRFTVSRDNAKNTVVLQMNSLKPEDTAVYYCAADTNWPVGAYEYWGQGTQVTVSS |

Further lines, the binder ahead of its results:

| Binder | ELISA OD [1] [OD] | ELISA OD [2] [OD] | ELISA OD [3] [OD] |
| --- | --- | --- | --- |
| VHH clone 8B03 (VHH) VHH: EVQLVESGGGLVQPGGSLRLSCRASGAIFSINHMGWYRQAPGKQRELVATITSGGSTNYADSVKGRFTISRDNAKNTVYLQMNSLKPEDTAVYSCNLDWTTGWGSRRDYWGQGTQVTVSS | 0.069 | 0.068 | 0.221 |
| VHH clone 8G1 (VHH) VHH: QVQLVESGGGLVQPGGSLRLSCRASGAIFSINHMGWYRQAPGKQRELVATITSGGSTNYADSVKGRFTISRDNAKNTVYLQMNSLKPEDTAVYSCNLDWTTGWGSRRDYWGQGTQVTVSS | 0.079 | 0.068 | 0.128 |
| VHH clone 8G11 (VHH) VHH: EVQLVESGGGLVQAGGSLRLSCAASGRTFDIYTMGWFRQVPGKEREFVADIGRAGGTTHYADSVKGRFAISRDNANDAVHLQMNSLKPEDTAVYYCATKVVPRAGRRLLDYDYWGQGTQVTVSS | 0.073 | 0.054 | 0.123 |
